According to PMC2735845:

Experiments:
[1] = biological target: E. coli SSBΔC1 (SSB lacking its C-terminal-most residue) (E. coli) (UniProt P0AGE0)
[2] = biological target: E. coli SSB113 (E. coli) (UniProt P0AGE0)
[3] = biological target: E. coli SSB-mixed (E. coli) (UniProt P0AGE0)

Fold stimulation of RecQ helicase activity by SSBΔC1 [1]: 0.6 fold
Fold stimulation of RecQ helicase activity by SSB113 [2]: 0.9 fold
Fold stimulation of RecQ helicase activity by SSB-mixed [3]: 0.7 fold
Substance: E. coli RecQ (wild type, full-length, hexahistidine-tagged) (from UniProt P15043 1-609) (enzyme)
